Measured values: the DeepSol protein solubility set

Assay: soluble on expression in E. coli; label from the status in PepcDB or PDB records

| Sequence | soluble on expression in E. coli |
| --- | --- |
| MEMRELVGQFVERMQVLRHLVPILPDEQLYVRFESDDETALLLIGKESAARGMENDERKTLTVRGSKEALASLLNGELKLQQLVRLREVHVSGSFRQLLLLESLLHLAKPYRHVG | not soluble |
| MGSDKIHHHHHHMLDFNHQPSIAERINALIDSGLIADRDATPPRAYLGGSRLGHSCERALQFEFAGAPKDSGADFNGQTLRIFAIGHALEDVAIRWLRRAGFDIYTRKGNRPDGEQFGFSVAGGQVRGHVDGILADGPVIPGMGYPALWECKTMNAKNWRETVAKGVTVSKPVYAAQIALYQAYMEGTVPGISANPALFTAINKDTAELHHELVSFDGELAQRISDRAVRILQATDAGELLPRMSSDPDYFECRFCPWKTRCWA | not soluble |
| MLINVNFNELLLELDSLSVYRNLLNDSVIKKLYELGDLIYKKEPGTDEFIKKYNEFFFELTSGSIQSLKEHIIELILFDENPYSRQSEKLPFENIDKVLIDAASKDLDRLHVISALTSRKFKDYALENICKSESEKRFIDSLPAWEFDGRSNQGKRKLSQNCQKMIDVLVSSNKWGECVKNLSDFYFTNGSGIFARYHAFVWEPSEKPSLRGVEFPDPIRLSDFIGYEQQRLEVIENTEKFVRGLPANNVLLYGDRGTGKSSTVKAIANEYREQGLRIIEIPRKYLVDFPAVLKLIKGRSCKFIIFIDDLAFEDSEESYTVLKSVLEGGVENRPDNVLIYATSNRRHLIKEKFSDRAGFKSDDPDDEIRAQDTMQEKLSLSERFGITVVFSSPDKKQFLQIVEGLVAKRGINIDKDTLQREAMKWELMYNGRSARTARQFVDWLEGSMKLKK | soluble |
| MGSDKIHHHHHHMIKKSDYPRYIQMLKRRPEFSGFTPDEFNQLEQQMRIKEYPKGQLLFDQADTRSRFYFVISGLLRSERIDETGDFSFYSFIAENKGFPYRGLFHDHEYAYAVNTMTPAVVASFPMAEFENLLTRNSEMMKRVVVEMGQIINENEDQLQQMVTSSASDRVRNALKILGRKLGNQLAGDRWFVPYAITLIELAKMAGTTRETASQVVQRLEADGQIIYEHKHFTIFIK | not soluble |
| MGSDKIHHHHHHMNAGLDGLLLLRAPNLAYATGLFLSANERPMGVWLPMDGDPILMLPGLERENAKGTGLTDLRFYDEFPGKEPPVLWMLDQIGRKHIGIDALDAALLDAARDKAVRIDLTDHAMAARTIKEPEEIALTVEAASFADLFLTRLHAAAGDIINQGGTEADLMADAMAHARGALMAKHKQAFSGTPMGITASVHSGPRAALPHGAVLERVPQPGETLIAGIGASLGGYHAESGVTLIVGSISAEQRQIMAAMKACNDAGVAACGARTTCTQANDAALDALRAAGLGDTIRHRIGHGMGLEGHEDPWLAPGDPTPIQTHMIFSNEPGVYRPGIDGYRTINTMIVTEDGVDIPSRFQANTPIDARVIAL | not soluble |
| MGSDKIHHHHHHMFLDDFHTVTDDRLCITAEQASRFAKCIAGDYNPIHDPDARRFCVPGDLLFALVMARFGLAQRMTFHFKGMVGDSVPLCFAQHGDTVSVTDHHGKVYLEVERGGDITHDAGVIEAFTRRYVAFSGRNFPHYLKPLMEEQGVMFNPQRPLVIYDSMGFSLSRLDVAEAGVAFTGATLDVTGKRGDALLQFQMTDADTVIGHGSKKLVVSGLREYDPPVMDAFVEQFMSLKAHSATTG | not soluble |
| MGSDKIHHHHHHMDSMQTTETFQVLKIGADAYIKRRNQRLLSNHRKDLRKFTRAEAFTYLDIDAKTLDKYVATADFDPRRHEDSQWLINIEEMYQLRDLLPENLRKASKFKRSDNQKMQVIVIQNQKGGVGKTVSAATIASGLATEFHQEYRVGLIDMDGQATLSMYYAPEADLEGCLSVGDLMMNNFDLDEGETLEQVVSNAFLPTTIPNLRILPASQSDRAIEGWFHEQVFGQKLTSPYSLLNTIINAVQDEFDIIIIDTPPSLGYATYNAYFAATSVVFPLSITENDIDATCSYFSYIPQVWALLANANHRGYDFMKILITNHRDSATTTDLMNTLYDHFAPYMYSNEFKHSEAIRQSSSLLSTVFDMSKSEYPKSKATFQSAQQNCYEVTSQVLRDIVNVWREQEQA | not soluble |
| MGSRRYDSRTTIFSPEGRLYQVEYALESISHAGTAIGIMASDGIVLAAERKVTSTLLEQDTSTEKLYKLNDKIAVAVAGLTADAEILINTARIHAQNYLKTYNEDIPVEILVRRLSDIKQGYTQHGGLRPFGVSFIYAGYDDRYGYQLYTSNPSGNYTGWKAISVGANTSAAQTLLQMDYKDDMKVDDAIELALKTLSKTTDSSALTYDRLEFATIRKGANDGEVYQKIFKPQEIKDILVKTGITKKDEDEEADEDMK | soluble |
| MGSDKIHHHHHHMEVTRTDKAVTLRWENEEVSEGTLVFVSSSPSLEANSEPVFKVSNAAKHYTFETKDIPVYFFLQAPNGDKRVVSERILPLESVFNFRDMGGYKTKHGHHVKWGKLYRSSNLVNINQADAALLQKLHIKWICDLRSSSEVQAQPTPEIQGVLNKHIPIGTAKNEKTTLPVSNDKAIYEPLMGESYRVFVQSVDGFKEIFSEILTDAKAGLPFVFHCTAGKDRTGVLAALLLTLLDVPEKTIFDDYAITNRYQDNILQEMGGIVSLFSNGNEKIDLEAFRPMAEARPEYLKIAFDEMKKQFGSVDGYLEKGIGITAEEKAIIQQQLLE | not soluble |
| MSLSSILECIRTVGRGERGRKPLNFDQAFRVMDEYLNGECGDDQMAMLLMLIRVQNETQQEIAGFVKAFQSRMPAIGADIDWPCYAGKREAAGQPWHLLAAKILADNGHKVLMHGYHDRQPGRLHAEDYLDKFAIKKAESAEDAKRVLETQNIVYLPLSAFAPQAETMIGWKNRYGLRTPINTVVRALNPGQATVGIRGSFHPGFQQLHAEVEYEIGQTAHAVVSFKGQSGESEYNPKVSQTVWLSQPSGVTSHYWTEQMLSEVPMPTVCPFGTEETDMNQMANTVLTTIAVVLFAEMHDREQAFERAFSYWASYCAAEGHHHHHH | soluble |
| MKKTAIALLAWFVSSASLAATPWQKITHPVPGAAQSIGSFANGCIIGADTLPVQSDNYQVMRTDQRRYFGHPDLVMFIQRLSHQAQQRGLGTVLIGDMGMPAGGRFNGGHASHQTGLDVDIFLQLPKTRWSQAQLLRPQALDLVSRDGKHVVPSRWSSDIASLIKLAAQDNDVTRIFVNPAIKQQLCLDAGNDRDWLRKVRPWFQHRAHMHVRLRCPADSLECEDQPLPPPGDGCGAELQSWFEPPKPGTTKPEKKTPPPLPPSCQALLDEHVL | not soluble |
| MTFNQEQDYWAGYKANERALIIQTWSGFGRYAPDHLYPPHILPLDTDNETLGTTVLQALANSRTFVYDSPEDQDFFDTEKIRQRYEDWVAKLCGNLGYKTRRALFKNMMSVDIWLHNGCLKISPSRHVKLEAWDAIDADDVILSLDNSPEEIGAGLKLALSRCR | soluble |
| MIQEYQLRILPEIAASEQQLKAYLSQEKGLNQRDITALRTLKRSIDARQRTIYVNLKVRVYLNEMPKDDEYEHTIYNNVEGKPQVIVVGAGPGGLFAALRLIELGLRPVVVERGKDVRERKKDLAQISREHRVDPESNYSFGEGGAGAYSDGKLYTRSKKRGNVDKILNVFCQHGASTAILVDAHPHIGTDKLPRVIENMRNTIIECGGEVHFKTRMDALIIEQGEVKGIETNTGETFLGPVILATGHSARDVYRWLAANNVTIEAKGIAVGVRLEHPAGLIDQIQYHNRSGRGKYLPAAEYSFVTQVDGRGVYSFCMCPGGFIVPAASGPEQVVVNGMSPSNRGSRWSNSGMVVEIQPEDIINDKRLTVNNEAEETFPELAVLHFQEELERQCWLQGGRRQTAPAQRMVDFTRKKLSYDLPESSYSPGLISSPLHFWMPEFIAGRLSQGFQQFGRSSHGFLTNEAVMIGVETRTSSPVRIVRDKDTLQHITLRGLFPCGEGAGYAGGIVSAGIDGERCAEAVAQFMNPLEHHHHHH | soluble |
| MAHHHHHHMSIIHYSLQYNCKSFCIFTYFLIPSYWKCSTYNIPQYRSQNKNNFISFCIQFLVQQCVLIIHKVFNLPNTSLRNYFPQINKQINNQTFLNVVVKRKLNHGKLWGAHV | soluble |
| MSNNNLSVISLVSIGEHPTSRRPRRAEQDARAIELGLKLVGDNLQTLHAGELSDDASQQTALRSYLGMGLAEINLLEMPENADAVLVIAEYLKQQKIDIILTGVCAESGESSGMLPYLLAEQLGMAMVTSIAEILSIDEVNKQAEVLQALPRGQRRKLKVDLPFIASVDMAAALPRQSAFGPAMRGQFEATLGANFTDEESSTWQTADAKKRPKRLKIIKAKTAADRFKAATAKASGGGGKVVHGVEESAQAILDLLIEEGLV | not soluble |
| MDRRIAMSLQVLGAGLGRTGTLSLKFALEHLGFGPCYHATEVAANMRTALPLWNAAERGAADWSAIFAGYRSSTDHPGCYYWRQLIEVYPQAKVVLTVRDPDSWFESVTQTILMPGRKSTFVGPEGETFSTFLKQQMGGRSQDRAFMVDYFNRWNQAVIDAVPSDRLLVFSSRQGWAPLCGFLSVPVPHKPYPHLHARPRLRWFTRGLRLPDDVAARERHVREYLQYLREDLFGLEHHHHHH | soluble |
| MFQISELANYRLCKRCSGRIFAYHYHGISNLERGEYLQFAIGCETGNPDFSFVDSKNCDICHGIFDRFDDIYDLVAKKVGDAQYSTFLVGSVFPQDTIRMEEDIQKKFGSSGESIKKEFNREFGKYFSARTGKEYSQDNPDLTILVNAEYLFVDVKIRSIYIYGKYRKFRRDMPQTRWIHRPNGDTVESVIGSVFTRYAGGTNYYLHGSGREDVDVRMLGNGREFVLEVENPRYREFELDPVVKEINTSGKGVEIFDVKFSSHDAVSEVKLEKHRKVYDALVVSDRPIDESRLLEACINLTGKNIYQRTPLRVAQRRSDLVRTRRIDQVDLVGVSANEAEILISAEAGTYIKELVNGDGGRTRPSLSEMYGSPLNVKELDVIKICRGEDLEHHHHHH | soluble |
| MATAIAITSLLIISGCSSNVETTTVKKETMQSQQKNTETVNTTPQNFYKDITSGKIEHIHGIGYVGNVPWVSIATHSGIKVYQNGKWLETATQLHDYMGFQATKNGFFASGHPEPGANLKNPLGLMKSSDGGNTLEKLAFYGESDFHNLAVGYNTEAIYLYNERPNSKLQQGFYFSTNNGQDWKNSKLKGLSSTVHSFSVHPDQSSVVAVSTKDGVYLSTDYGNTFELFSKSLESTAVTLSNEDVIYAPINTQIVTKKSIATNEETNIQIPLLDSKDAIMYISQNPQNAAEIVFATMKANVFLSTDEGKTWKQLTKEGTLQFN | not soluble |
| MSGVLNTVDQRTNLVGENRLELLLFTLNSRQLFAINVFKVKEVIKLPPLTKLPGSHYNIRGVASLRGEAVPVIDLRCSIGFPPLRGEAEEENLIVTEYNRSVQGFLVGPVRNIINTAWTEIQPPPSTSGRSNYLTAITQVKDGDTSQIVEIIDVEKVLAEIVHYDVTISEDILDHDLSQSMVGRN | not soluble |
| MGHHHHHHSHMLRGMARMGGQRRLKALAAPRFWPILRKEYKWAVKPRPGPHPAEKSLPLLLIVRNVLGYAQTAREARKLISEGHFRVDGVVRKDYKFPVGFMDVIEVVDTGEKFRMLPYPVKFFKLHPIPEEEGDLKPVRIENKTTVKGGHVQLNLHDGRNILVRVKDPRNPVEDVYRTMDTLLITVPGQEIKGHIKFGEGAIAIIVGGRNVGRVGVVKSVQKGWGRKRTLVTLEDASGNLFQTSLDYVFVIGLDRPVISLPEGAWK | soluble |
| MSYNNSYDVIILAGGLSKRFGADKCCFEVNSKTMLDRLLEQFDNPIVVSRSPRRIKKGILVIEKGEYEGPVKGVREGLKYVRRDRVFITGCDFPFLIKNLVDYVCSKPYDIVIPFDHRPQPLLACYSTELLNKNIDKINGLVELIELSSSVYFIGTEELLKIDPFLYSLININSIIDLIYRPIRIKTKSNFILRLEHHHHHH | not soluble |
